Test results from patent CN114230673A (dated 2022).

Key:
Experiment in all cases: ELISA, biotinylated recombinant protein on streptavidin plate, HRP anti-His detection
生物素标记重组人BCMA (rhBCMA) = target: T1, 生物素标记重组人BCMA (rhBCMA) (human, UniProt Q02223 1-54, biotin label (site not stated))
T1 construct: Bought protein
T1 sequence (looked up): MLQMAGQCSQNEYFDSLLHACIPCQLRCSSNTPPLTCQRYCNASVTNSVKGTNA

生物素标记重组人CD27 (rhCD27) = target: T2, 生物素标记重组人CD27 (rhCD27) (human, UniProt P26842 21-192, limits assumed, biotin label (site not stated))
T2 construct: Bought protein
T2 sequence (looked up): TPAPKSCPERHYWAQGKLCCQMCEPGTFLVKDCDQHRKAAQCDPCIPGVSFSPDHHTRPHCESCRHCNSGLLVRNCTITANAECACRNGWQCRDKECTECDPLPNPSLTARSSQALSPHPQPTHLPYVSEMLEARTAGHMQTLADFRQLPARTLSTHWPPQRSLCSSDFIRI

生物素标记重组人CD40 (rhCD40) = target: T3, 生物素标记重组人CD40 (rhCD40) (human, UniProt P25942 21-193, biotin label (site not stated))
T3 construct: Bought protein

Measured: binding result

T3 sequence (P25942 21-193 limits assumed): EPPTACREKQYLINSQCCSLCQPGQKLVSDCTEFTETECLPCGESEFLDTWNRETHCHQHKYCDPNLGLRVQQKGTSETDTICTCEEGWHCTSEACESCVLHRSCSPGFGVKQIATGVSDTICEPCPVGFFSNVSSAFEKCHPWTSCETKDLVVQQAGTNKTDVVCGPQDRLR

B1: anti-CD19 scFv (scFv)
scFv: DIQMTQTTSSLSASLGDRVTISCRASQDISKYLNWYQQKPDGTVKLLIYHTSRLHSGVPSRFSGSGSGTDYSLTISNLEQEDIATYFCQQGNTLPYTFGGGTKLEITGGGGSGGGGSGGGGSEVKLQESGPGLVAPSQSLSVTCTVSGVSLPDYGVSWIRQPPRKGLEWLGVIWGSETTYYNSALKSRLTIIKDNSKSQVFLKMNSLQTDDTAIYYCAKHYYYGGSYAMDYWGQGTSVTVSS
notes: Soluble scFv used in the ELISA and flow cytometry; also called CD19抗体; 小鼠抗人anti CD19-scFv抗体; not shown: His tag implied by the anti-His detection antibody
no binding: all assays above
